Patent publication US11833215B2, “CKIT antibody drug conjugates” (Novartis AG, priority 2014, dated 2023)
“Also recorded” adds a separate entry of the source.

What was measured:
[1] = biological target: T1, Human cKIT D1-D3 ECD (Homo sapiens, UniProt P10721, N130S/N145S); assay: crystal structure of cKIT ECD/NEG085 Fab complex
T1 construct: protein was made with residues Q26-G311; made in house
Description: Human cKIT (accession code NM_000222 domain 1 (D1)-domain 3 (D3) extracellular domain (ECD) protein was made with residues Q26-G311 ([…], N145S- these changes results in glycosylation deficiency, in order to express the protein in a glycan free form). Equal molar ratios of human cKIT D1-D3 ECD and NEG085 Fab were mixed and subjected to a final gel filtration step equilibrated with 20 mM Tris-HCl pH 7.5 and 100 mM NaCl, and concentrated to 20 mg/ml. Trypsin was added to the protein complex crystallization sample to create a 1:100 w/w dilution. The protease/sample mixture was incubated at room temperature for 30 minutes before setting up the crystallization experiment.
Diffracting crystals of the cKIT ECD/NEG085 Fab complex were obtained directly from Protein Complex Suite F5 (0.1M NaCl, 0.1M Tris pH 8.0, 8% PEG 20 k; Qiagen) at 4° C. and, after minor optimization, led to crystals diffracting to 5 Å in-house. […]
Data were collected on a single crystal cooled to 100K using an ADSC QUANTUM 315 detector (ADSC, Poway CA) and synchrotron radiation (λ=1.0000 Å) at the beam line 5.0.2 of the Advanced Light Source. […] The crystal contains four copies of the cKIT ECD/NEG085 Fab complex in the asymmetric unit with a calculated solvent content of 66%. […]

[2] = tested on: cKIT on normal human CD34+ bone marrow cells; assay: cKIT receptor internalization on bone marrow cells by flow cytometry; assay type: cell-based; settings: 10 μg/ml, 37° C.
Description: In another internalization experiment, the impact of NEG085 on cKIT receptor levels was evaluated on human bone marrow cells. Normal human CD34+ bone marrow cells (All Cells, Cat #ABM022F, Emeryville, CA) were thawed and washed with 10 mL of StemPro®-34 SFM medium (Gibco, Life Technologies, Carlsbad, CA). Cells were resuspended in 1.25 mL of StemPro-34 SFM medium at 4×10^5 cells/mL and split equally into two tubes. One tube was untreated, and the other was treated with 10 μg/ml of NEG085 and both were incubated at 37° C., 5% CO2. 100 μL of cell suspension was collected at each timepoint (0, 15, 30, 60, 120, and 240 min) from each condition, and placed into an ice cold collection tube to cease internalization. Cells were washed with 3 mL of ice-cold FBS stain buffer and resuspended in 100 μL of FBS stain buffer. […] of 104D2-BV421 (mouse anti-human IgG1 k, Biolegend, San Diego CA) was added to each tube and incubated on ice for 1 hour. Following another wash with FBS stain buffer, total cKIT receptors were measured by flow cytometry by assessing the mean fluorescence intensity of BV421 on a FACS Canto II® (BD Biosciences, San Jose, CA).

[3] = tested on: primary human mast cells; assay: mast cell degranulation (β-hexosaminidase release); assay type: cell-based; settings: 0.05-100 nM, 90 min
Description: Primary human mast cells were cultured from peripheral human blood according to the methods described by Saito et al., (supra). Mast cells, which had been in liquid culture for a minimum of one week, were pre-treated with 5% Ag-specific IgE JW8 (in-house batch ACE 27283), 95% non-specific monoclonal human IgE (Abbiotec, Cat #12030635, San Diego, CA) and 10 ng/mL rhIL-4 (R&D Systems Cat #204-IL, Minneapolis, MN) for 5 days at 37° C. The cells were then incubated with increasing concentrations (0.05-100 nM) of an isotype control IgG, the anti-human cKIT Abs, 20376 and NEG085, the anti-IgE Ab, LE27, or the NIP(5)BSA antigen, in the presence of a goat anti-human IgG (H+L) Fc-specific Ab (Jackson ImmunoResearch, Cat #109-005-008-JIR, West Grove, PA) for 90 min at 37° C. Cells were then centrifuged and the supernatants were transferred into 96-well black-walled plates prior to the addition of the β-hexosaminidase substrate. Following 90 min incubation at 37° C., the reaction was stopped by the addition of tris-base (Sigma, Cat #T1503-500G, pH 12, St. Louis, MO) and the fluorescence intensity was recorded on the Envision® plate reader.

T1 sequence (P10721 26-311 N130S/N145S limits assumed): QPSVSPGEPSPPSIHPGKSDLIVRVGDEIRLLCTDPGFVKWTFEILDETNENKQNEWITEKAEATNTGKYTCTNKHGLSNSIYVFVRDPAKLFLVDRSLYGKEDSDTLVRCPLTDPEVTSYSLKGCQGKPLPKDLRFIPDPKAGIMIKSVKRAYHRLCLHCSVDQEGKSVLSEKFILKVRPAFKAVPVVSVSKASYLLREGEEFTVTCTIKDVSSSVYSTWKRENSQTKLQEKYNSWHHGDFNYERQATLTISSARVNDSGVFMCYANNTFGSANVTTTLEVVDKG

B1: NEG085: anti-cKIT antibody of Table 3, VH SEQ ID NO 82, VL SEQ ID NO 91 (antibody, listed as Homo sapiens, V domains shown)
VH: EVQLVESGGGLVQPGGSLRLSCAASGFAFSGYYMAWVRQAPGKGLEWVANINYPGSSTYYLDSVKGRFTISRDNAKNSLYLQMNSLRAEDTAVYYCARGDYYGTTYWYFDVWGQGTTVTVSS
VL: DIQMTQSPSSLSASVGDRVTITCRASQSISSYLNWYQQKPGKAPKLLIYYTSRLQSGVPSRFSGSGSGTDFTLTISSLQPEDFATYYCQQGRRLWSFGGGTKVEIK
competition with SCF for binding to cKIT (superposition of structures) [1]: appear to not compete
solvent-accessible surface area buried by NEG085/cKIT interface ([1]; total, H and L chain): ~1890 Å2
time of bulk of cKIT internalization [2]: 15 min
internalization of cKIT on human bone marrow cells ([2]; 0-240 min): mediate rapid internalization; also recorded: rapidly internalized
degranulation of primary human mast cells [3]: do not mediate primary human mast cell degranulation; also recorded: do not induce mast cell degranulation
